Measurements taken from US20150216948A1, “CYTOCHROME P450 SUICIDE GENE SYSTEM” (priority 2012, published 2015).

Tested on: HepG2 cells
Assay: 4-IPO toxicity assay: survival of transduced HepG2 cells by flow cytometry (propidium iodine)
Type: cell-based, human
Conditions: for 4-IPO processing activity / cell killing (in words): transduced cells challenged with 4-IPO
Description: Initially, the serine at position 427 in the human CYP4B1 was mutated back to proline (h-P427), which is present at this position in all CYP4B1 proteins. Additionally a proline to serine exchange was created in the native rabbit CYP4B1 enzyme at the corresponding position 422 (r-P422). To immediately exclude the possibility that the different activities between human and the rabbit protein isoforms are simply due to differences in mRNA stability, the human CYP4B1 cDNA (SEQ ID NO.: 2) was optimized for human-codon usage (SEQ ID NO.: 3) by de novo synthesis with silent mutagenesis of the cDNA, thus removing internal TATA-boxes, instability motives, RNA secondary structures and (cryptic) splice donor/acceptor sites and ensuring an average GC content of around 60%. All cDNAs were cloned into the same lentiviral (LV) HIV1-based expression vector and LV supernatants produced by plasmid transfection in HEK293T cells. Subsequently, the two rabbit and the four human cDNAs were stably expressed in the human liver cell line HepG2. Stably expressing transduced cells were challenged after five days with increasing concentrations of 4-IPO for 24, 48 and 72 hours and then the survival of cells analyzed by flow cytometry using propidium iodine for live/dead cell discrimination.
Next, it was analyzed whether the different activities of the human and the rabbit proteins in processing 4-IPO could be explained by differences in protein half-life. However, as no antibody was available that can detect both CYP4B1 proteins, EGFP fusion constructs were generated. With these constructs, EGFP antibodies can be utilized to visualize and compare the expression levels and the half-lives of the fusion proteins in cells by western blots. EGFP expression can also be used for flow cytometry assessment of the expression levels due to the fluorescent properties of the fusion proteins. 5′- and 3′-fusions of EGFP with the native rabbit P422 and the human P427 CYP4B1 proteins were cloned in LV vectors with an IRES-NEO (NEO=neomycin phosphotransferase cDNA, npt II) and stably expressed in HepG2 cells (FIG. 3 B). For comparison, the corresponding IRES-EGFP constructs were also included, as these vectors had already been used in previous experiments and activity measurements thus already existed. Transduced cells were incubated for 24, 48 and 72 hours with increasing concentration of 4-IPO. Cultures were then harvested, cells stained with propidium iodine and subsequently analyzed for survival of transduced EGFP+ cells by flow cytometry (FIG. 3 A).

Molecule | 4-IPO processing activity / cell killing (in words) | 4-IPO processing activity / cell killing (in words) (listed as human P427 CYP4B1 protein with sections 1+2+3) | 4-IPO processing activity / cell killing (in words) (listed as modified human CYP4B1 P427 protein with sections 1+2+3 of the rabbit protein) | cell survival rates (within 72 hours upon applying 4-IPO, FIG. 6 D)
variant of hCYP4B1 having an insertion of a serine at position 207: human CYP4B1 variant with serine insertion at amino acid position 207 (protein, listed as Homo sapiens, serine insertion at 207) MVPSFLSLSFSSLGLWASGLILVLGFLKLIHLLLRRQTLAKAMDKFPGPPTHWLFGHALEIQETGSLDKVVSWAHQFPYAHPLWFGQFIGFLNIYEPDYAKAVYSRGDPKAPDVYDFFLQWIGRGLLVLEGPKWLQHRKLLTPGFHYDVLKPYVAVFTESTRIMLDKWEEKAREGKSFDIFCDVGHMALNTLMKCTFGRGDTGLGHSRDSSYYLAVSDLTLLMQQRLVSFQYHNDFIYWLTPHGRRFLRACQVAHDHTDQVIRERKAALQDEKVRKKIQNRRHLDFLDILLGARDEDDIKLSDADLRAEVDTFMFEGHDTTTSGISWFLYCMALYPEHQHRCREEVREILGDQDFFQWDDLGKMTYLTMCIKESFRLYPPVPQVYRQLSKPVTFVDGRSLPAGSLISMHIYALHRNSAVWPDPEVFDSLRFSTENASKRHPFAFMPFSAGPRNCIGQQFAMSEMKVVTAMCLLRFEFSLDPSRLPIKMPQLVLRSKNGFHLHLKPLGPGSGK | did not reveal any functional differences |  |  | 
CYP4B1 P427 mut18: modified human CYP4B1 P427 with sections 1+2+3 of the rabbit protein; differs in 19 amino acids (protein) MVPSFLSLSFSSLGLWASGLILVLGFLKLIHLLLRRQTLAKAMDKFPGPPTHWLFGHALEIQETGSLDKVVSWAHQFPYAHPLWFGQFIGFLNIYEPDYAKAVYSRGDPKAPDVYDFFLQWIGKGLLVLDGPKWFQHRKLLTPGFHYDVLKPYVAIFADSTRIMLEKWEKKACEGKSFDIFSDVGHMALDTLMKCTFGKGDSGLNHRDSSYYVAVSELTLLMQQRIDSFQYHNDFIYWLTPHGRRFLRACQVAHDHTDQVIRERKAALQDEKVRKKIQNRRHLDFLDILLGARDEDDIKLSDADLRAEVDTFMFEGHDTTTSGISWFLYCMALYPEHQHRCREEVREILGDQDFFQWDDLGKMTYLTMCIKESFRLYPPVPQVYRQLSKPVTFVDGRSLPAGSLISMHIYALHRNSAVWPDPEVFDPLRFSTENASKRHPFAFMPFSAGPRNCIGQQFAMSEMKVVTAMCLLRFEFSLDPSRLPIKMPQLVLRSKNGFHLHLKPLGPGSGK |  | almost as high as the activity of native rabbit protein | increased activity for toxifying 4-IPO | about 10%
modified human CYP4B1 P427 protein with the additional section 1 of the rabbit protein: differs in only four amino acid from the native human CYP4B1 protein (protein) MVPSFLSLSFSSLGLWASGLILVLGFLKLIHLLLRRQTLAKAMDKFPGPPTHWLFGHALEIQETGSLDKVVSWAHQFPYAHPLWFGQFIGFLNIYEPDYAKAVYSRGDPKAPDVYDFFLQWIGKGLLVLDGPKWFQHRKLLTPGFHYDVLKPYVAVFTESTRIMLDKWEEKAREGKSFDIFCDVGHMALNTLMKCTFGRGDTGLGHRDSSYYLAVSDLTLLMQQRLVSFQYHNDFIYWLTPHGRRFLRACQVAHDHTDQVIRERKAALQDEKVRKKIQNRRHLDFLDILLGARDEDDIKLSDADLRAEVDTFMFEGHDTTTSGISWFLYCMALYPEHQHRCREEVREILGDQDFFQWDDLGKMTYLTMCIKESFRLYPPVPQVYRQLSKPVTFVDGRSLPAGSLISMHIYALHRNSAVWPDPEVFDPLRFSTENASKRHPFAFMPFSAGPRNCIGQQFAMSEMKVVTAMCLLRFEFSLDPSRLPIKMPQLVLRSKNGFHLHLKPLGPGSGK | increased activity for toxifying 4-IPO |  |  | 
